Laboratory results: patent publication US8034784B2, “Method of suppressing or reducing IL-TIF-induced inflammation, or treating associated conditions thereof, using Zcytor16” (ZymoGenetics, Inc., priority 1999, dated 2011)

B1: IL-TIF-CEE: human IL-TIF polypeptide (SEQ ID NO:15) containing C-terminal GluGlu (EE) tag, purified from BHK cells; ligand of zcytor16 (protein, listed as Homo sapiens)
chain: MAALQKSVSSFLMGTLATSCLLLLALLVQGGAAAPISSHCRLDKSNFQQPYITNRTFMLAKEASLADNNTDVRLIGEKLFHGVSMSERCYLMKQVLNFTLEEVLFPQSDRFQPYMQEVVPFLARLSNRLSTCHIEGDDLHIQRNVQKLKDTVKKLGESGEIKAIGELDLLFMSLRNACI
modifications: C-terminal GluGlu tag
notes: ligand of zcytor16
B2: zcytor16-Fc4: soluble zcytor16 polypeptide (residue 22 to 231 of SEQ ID NO:2; SEQ ID NO:13) fused to a C-terminal Fc4 tag (protein)
chain: TQSTHESLKPQRVQFQSRNFHNILQWQPGRALTGNSSVYFVQYKIYGQRQWKNKEDCWGTQELSCDLTSETSDIQEPYYGRVRAASAGSYSEWSMTPRFTPWWETKIDPPVMNITQVNGSLLVILHAPNLPYRYQKEKNVSIEDYYELLYRVFIINNSLEKEQKVYEGAHRAVEIEALTPHSSYCVVAEIYQPMLDRRSQRSEERCVEIPEPRSSDKTHTCPPCPAPEAEGAPSVFLFPPKPKDTLMISRTPEVTCVVVDVSHEDPEVKFNWYVDGVEVHNAKTKPREEQYNSTYRVVSVLTVLHQDWLNGKEYKCKVSNKALPSSIEKTISKAKGQPREPQVYTLPPSRDELTKNQVSLTCLVKGFYPSDIAVEWESNGQPENNYKTTPPVLDSDGSFFLYSKLTVDKSRWQQGNVFSCSVMHEALHNHYTQKSLSLSPGK

Key:
[1] = system: BaF3/CRF2-4/zcytor11 cells; assay: Alamar Blue proliferation assay, BaF3/CRF2-4/zcytor11 cells; format: cell-based, murine; conditions: 3 days, then Alamar Blue
Protocol: BaF3, an interleukin-3 (IL-3) dependent pre-lymphoid cell line derived from murine bone marrow (Palacios and Steinmetz, Cell 41: 727-734, 1985; Mathey-Prevot et al., Mol. Cell. Biol. 6: 4133-4135, 1986), was maintained in complete media (RPMI medium (JRH Bioscience Inc., Lenexa, Kans.) supplemented with 10% heat-inactivated fetal calf serum, 2 ng/ml murine IL-3 (mIL-3) (R & D, Minneapolis, Minn.), 2 mM L-glutaMax-1™ (Gibco BRL), 1 mM Sodium Pyruvate (Gibco BRL), and PSN antibiotics (GIBCO BRL)). Prior to electroporation, CRF2-4/pZP7P was prepared and purified using a Qiagen Maxi Prep kit (Qiagen) as per manufacturer's instructions. […]
BaF3/CRF2-4/zcytor11 cells were spun down and washed in the complete media, described in Example 7A above, but without mIL-3 (hereinafter referred to as “mIL-3 free media”). […] Cells were then counted in a hemacytometer. […]
Proliferation of the BaF3/CRF2-4/zcytor11 cells was assessed using IL-TIF-CEE protein diluted with mIL-3 free media to 50, 10, 2, 1, 0.5, 0.25, 0.13, 0.06 ng/ml concentrations. […] Alamar Blue gives a fluourometric readout based on number of live cells, and is thus a direct measurement of cell proliferation in comparison to a negative control. […] Plates were read on the Finax™ plate reader (Molecular Devices Sunnyvale, Calif.) using the SoftMax™ Pro program, at wavelengths 544 (Excitation) and 590 (Emmission). […]

IL-TIF [2] = target: T1, IL-TIF (Homo sapiens, UniProt Q9GZX6); assay: COS cell secretion trap binding assay; design: expressed in transfected cells; host or cells: COS cells, pZP7 expression vector; conditions: 1-3 μg/ml zcytor16sR-Fc4, COS cells transfected with human IL-TIF cDNA
T1 sequence (Q9GZX6 34-179): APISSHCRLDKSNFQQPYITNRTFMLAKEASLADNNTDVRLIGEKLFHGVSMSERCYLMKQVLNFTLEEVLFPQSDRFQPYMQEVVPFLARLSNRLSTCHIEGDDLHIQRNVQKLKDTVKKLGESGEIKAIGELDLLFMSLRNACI
Protocol: COS cell transfections were performed as follows: A mixture of 0.5 μg DNA and 5 μl lipofectamine (Gibco BRL) in 92 ul serum free DMEM media (55 mg sodium pyruvate, 146 mg L-glutamine, 5 mg transferrin, 2.5 mg insulin, 1 μg selenium and 5 mg fetuin in 500 ml DMEM) was incubated at room temperature for 30 minutes and then 400 μl serum free DMEM media added. A 500 μl mixture was added onto COS cells plated on 12-well tissue culture plate at 1.5×10^5 COS cells/well and previously incubated for 5 hours at 37° C. An additional 500 μl 20% FBS DMEM media (100 ml FBS, 55 mg sodium pyruvate and 146 mg L-glutamine in 500 ml DMEM) was added and the plates were incubated overnight.
The secretion trap was performed as follows: Media was rinsed off cells with PBS and fixed for 15 minutes with 1.8% Formaldehyde in PBS. Cells were then washed with TNT (0.1M Tris-HCl, 0.15M NaCl, and 0.05% Tween-20 in H2O). Cells were permeated with 0.1% Triton-X in PBS for 15 minutes and washed again with TNT. […]

IL-TIF [3] = target: T1, IL-TIF; assay: Inhibition of IL-TIF activation of luciferase reporter in MES 13 cells by zcytor16-Fc4; format: cell-based; conditions: even at the highest dose of IL-TIF used
Protocol: MES 13 cells (ATCC No. CRL-1927) were plated at 10,000 cells/well in 96-well tissue culture clusters (Costar) in DMEM growth medium (Life Technologies) supplemented with pyruvate and 10% serum (HyClone). Next day, the medium was switched to serum free DMEM medium by substituting 0.1% BSA (Fraction V; Sigma) for serum. This medium also contained the adenoviral construct KZ136 (below) that encodes a luciferase reporter mini-gene driven by SRE and STAT elements, at a 1000:1 multiplicity of infection (m.o.i.), i.e. 1000 adenoviral particles per cell. After allowing 24 h for the incorporation of the adenoviral construct in the cells, the media were changed and replaced with serum-free media. Human recombinant IL-TIF with or without a recombinant zcytor16-Fc4 fusion was added at the indicated final concentration in the well (as described in Table 11, below). Dilutions of both the IL-TIF and zcytor16-Fc4 were performed in serum-free medium. 0.1% BSA was added for a basal assay control. 4 h later, cells were lysed and luciferase activity, denoting activation of the reporter gene, was determined in the lysate using an Luciferase Assay System assay kit (Promega) and a Labsystems Luminoskan luminometer (Labsystems, Helsinki, Finland). Activity was expressed as luciferase units (LU) in the lysate.
The construction of the adenoviral KZ136 vector was as follows. […]

IL-TIF [4] = target: T1, IL-TIF; assay: Antagonism of IL-TIF-induced proliferation of BaF3/CRF2-4/zcytor11 cells (Alamar Blue); format: cell-based; design: made in house; host or cells: BHK 570 cells, pHZ200-CEE vector, purified from conditioned media; conditions: zcytor16 at 10 μg/ml; IL-TIF at all concentrations (0.06-50 ng/ml)
Excerpt: Purified IL-TIF-CEE (Example 19) was used to test for the presence of proliferation activity as described below. Purified zcytor16-Fc4 (Example 11) was used to antagonize the proliferative response of the IL-TIF in this assay as described below.
BaF3/CRF2-4/zcytor11 cells were spun down and washed in the complete media, described in Example 7A above, but without mIL-3 (hereinafter referred to as “mIL-3 free media”). The cells were spun and washed 3 times to ensure the removal of the mIL-3. Cells were then counted in a hemacytometer. Cells were plated in a 96-well format at 5000 cells per well in a volume of 100 μl per well using the mIL-3 free media.
Proliferation of the BaF3/CRF2-4/zcytor11 cells was assessed using IL-TIF-CEE protein diluted with mIL-3 free media to 50, 10, 2, 1, 0.5, 0.25, 0.13, 0.06 ng/ml concentrations. 100 μl of the diluted protein was added to the BaF3/CRF2-4/zcytor11 cells. […] Alamar Blue gives a fluourometric readout based on number of live cells, and is thus a direct measurement of cell proliferation in comparison to a negative control. […] Plates were read on the Finax™ plate reader (Molecular Devices Sunnyvale, Calif.) using the SoftMax™ Pro program, at wavelengths 544 (Excitation) and 590 (Emmission). […] The response, as measured, was approximately 15-fold over background at the high end of 50 ng/ml down to a 2-fold induction at the low end of 0.06 ng/ml. […]

Row | Molecule | proliferative response (induction) ([1]; IL-TIF-CEE 0.06 ng/ml) [fold induction] | proliferative response over background ([1]; IL-TIF-CEE 50 ng/ml) | binding of zcytor16sR/Fc4 to COS cells transfected with human IL-TIF (IL-TIF [2]) | antagonism of the response of MES 13 cells to IL-TIF (IL-TIF [3]) | proliferative response to IL-TIF in the presence of zcytor16 (IL-TIF [4])
1 | B1 | 2 | approximately 15 fold over background | – | – | –
2 | B2 | – | – | positive binding | effectively blocks the response to IL-TIF | brought down to background
